Assay results as given in publication PMC8389370, “pUL21 is a viral phosphatase adaptor that promotes herpes simplex virus replication and spread” (PLoS Pathogens, 2021).

Target: T1, StrepII-CERT (human, UniProt Q9Y5P4-2 1-598, predominantly hyperphosphorylated (CERT^P); sites not given)
T1 construct: human CERT, UniProt Q9Y5P4-2, codon-optimised synthetic gene in pcDNA-SW; also called Strep-CERT; CERT^P; source: Freestyle 293F cells, transfected, purified (StrepTrap HP, SEC); not shown: StrepII-tag, N-terminal, kept
T1 sequence (looked up): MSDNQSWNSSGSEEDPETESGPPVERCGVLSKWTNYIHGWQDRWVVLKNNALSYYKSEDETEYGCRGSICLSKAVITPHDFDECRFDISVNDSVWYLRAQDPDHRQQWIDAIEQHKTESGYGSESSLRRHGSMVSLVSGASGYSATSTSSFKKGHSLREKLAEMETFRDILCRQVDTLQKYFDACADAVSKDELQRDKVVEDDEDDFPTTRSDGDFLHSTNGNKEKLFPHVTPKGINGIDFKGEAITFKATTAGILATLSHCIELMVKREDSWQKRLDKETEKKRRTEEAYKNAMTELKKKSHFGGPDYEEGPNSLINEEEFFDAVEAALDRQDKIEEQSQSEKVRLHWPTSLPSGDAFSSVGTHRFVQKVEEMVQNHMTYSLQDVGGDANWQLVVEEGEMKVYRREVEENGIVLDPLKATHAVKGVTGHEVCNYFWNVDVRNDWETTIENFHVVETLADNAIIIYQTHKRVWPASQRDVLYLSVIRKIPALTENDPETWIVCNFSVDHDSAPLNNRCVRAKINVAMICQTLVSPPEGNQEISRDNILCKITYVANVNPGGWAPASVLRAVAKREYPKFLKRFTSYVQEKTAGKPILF
Experiment: pull-down; pUL21-GST (1 μM) on glutathione magnetic beads, 5 μM purified prey, 60 min at room temperature, 20 mM Tris pH 8.5, 200 mM NaCl, 0.1% NP-40, 1 mM DTT, 1 mM EDTA; eluted with glutathione, Coomassie SDS-PAGE
Conditions: both partners purified

B1: pUL21-GST (natural protein)
chain: MELSYATTMHYRDVVFYVTTDRNRAYFVCGGCVYSVGRPCASQPGEIAKFGLVVRGTGPDDRVVANYVRSELRQRGLQDVRPIGEDEVFLDSVCLLNPNVSSELDVINTNDVEVLDECLAEYCTSLRTSPGVLISGLRVRAQDRIIELFEHPTIVNVSSHFVYTPSPYVFALAQAHLPRLPSSLEALVSGLFDGIPAPRQPLDAHNPRTDVVITGRRAPRPIAGSGAGSGGAGAKRATVSEFVQVKHIDRVGPAGVSPAPPPNNTDSSSLVPGAQDSAPPGPTLRELWWVFYAADRALEEPRADSGLTREEVRAVRGFREQAWKLFGSAGAPRAFIGAALGLSPLQKLAVYYYIIHRERRLSPFPALVRLVGRYTQRHGLYVPRPDDPVLADAINGLFRDALAAGTTAEQLLMFDLLPPKDVPVGSDVQADSTALLRFIESQRLAVPGGVISPEHVAYLGAFLSVLYAGRGRMSAATHTARLTGVTSLVLAVGDVDRLSAFDRGAAGAASRTRAAGYLDVLLTVRLARSQHGQSV
notes: HSV-1 strain KOS pUL21, UniProt F8RG07; the plasmid for the GST fusion is not described; also called Purified recombinant pUL21-GST; source: E. coli T7 Express lysY/Iq, purified (glutathione Sepharose 4B, SEC)
  binding result: binds
